Assay results taken from patent publication US20200283478A1 (Genentech, published 2020).
Read-outs that look alike come from different tables or passages of the source. Bridge positions count the residues as written; N and C are the ends. Square brackets hold non-standard residues; d marks the D form. Ends that are not written are not given here. hArg = N=C(N)NCCCC[C@H](N)C(=O)O

Columns and labels:
[1] = biological target: T1, proprotein convertase subtilisin/kexin type 9 (PCSK9) (human, UniProt Q8NBP7 31-692); test: phage spot ELISA; first of two rows with this extension
T1 construct: His-tagged full-length PCSK9 in TR-FRET and SPR, biotinylated in phage ELISA; secreted protein is autoprocessed (prodomain plus catalytic/CRD chain starting at S153); also called rec.PCSK9; His-PCSK9
T1 sequence (Q8NBP7 other isoform, or with tags, fused parts or gaps limits assumed): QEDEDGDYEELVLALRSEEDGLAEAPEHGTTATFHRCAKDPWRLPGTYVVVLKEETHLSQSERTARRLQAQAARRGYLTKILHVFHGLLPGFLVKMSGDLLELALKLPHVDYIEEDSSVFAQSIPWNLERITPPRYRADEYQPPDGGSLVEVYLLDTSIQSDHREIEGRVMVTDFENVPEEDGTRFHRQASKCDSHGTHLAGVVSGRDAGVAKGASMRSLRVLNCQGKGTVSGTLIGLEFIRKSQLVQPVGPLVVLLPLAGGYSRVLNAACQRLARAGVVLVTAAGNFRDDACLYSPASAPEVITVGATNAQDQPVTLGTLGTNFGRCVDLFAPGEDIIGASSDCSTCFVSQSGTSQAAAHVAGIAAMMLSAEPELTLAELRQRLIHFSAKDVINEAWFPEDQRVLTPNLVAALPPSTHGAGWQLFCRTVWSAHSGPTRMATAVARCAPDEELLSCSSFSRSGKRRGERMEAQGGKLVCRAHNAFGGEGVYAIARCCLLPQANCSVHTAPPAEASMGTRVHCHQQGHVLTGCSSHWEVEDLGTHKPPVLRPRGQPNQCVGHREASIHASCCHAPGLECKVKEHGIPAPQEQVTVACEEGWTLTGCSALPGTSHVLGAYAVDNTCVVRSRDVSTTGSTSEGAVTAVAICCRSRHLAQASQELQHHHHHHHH

[2] = biological target: T2, PCSK9Δhelix (human, Chemically biotinylated in the phage ELISAs; the site is not given.); test: as above
T2 construct: construct M1-Q692 with engineered TEV site, cleaved by TEV; also called His-PCSK9Δhelix; open groove PCSK9Δhelix
T2 sequence (prodomain, as listed by the source mutant limits assumed, chain 1 of 2): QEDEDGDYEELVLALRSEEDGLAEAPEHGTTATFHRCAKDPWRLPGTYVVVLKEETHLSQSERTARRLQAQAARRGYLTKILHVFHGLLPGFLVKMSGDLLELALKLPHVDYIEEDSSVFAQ
T2 sequence (chain, as listed by the source mutant limits assumed, chain 2 of 2): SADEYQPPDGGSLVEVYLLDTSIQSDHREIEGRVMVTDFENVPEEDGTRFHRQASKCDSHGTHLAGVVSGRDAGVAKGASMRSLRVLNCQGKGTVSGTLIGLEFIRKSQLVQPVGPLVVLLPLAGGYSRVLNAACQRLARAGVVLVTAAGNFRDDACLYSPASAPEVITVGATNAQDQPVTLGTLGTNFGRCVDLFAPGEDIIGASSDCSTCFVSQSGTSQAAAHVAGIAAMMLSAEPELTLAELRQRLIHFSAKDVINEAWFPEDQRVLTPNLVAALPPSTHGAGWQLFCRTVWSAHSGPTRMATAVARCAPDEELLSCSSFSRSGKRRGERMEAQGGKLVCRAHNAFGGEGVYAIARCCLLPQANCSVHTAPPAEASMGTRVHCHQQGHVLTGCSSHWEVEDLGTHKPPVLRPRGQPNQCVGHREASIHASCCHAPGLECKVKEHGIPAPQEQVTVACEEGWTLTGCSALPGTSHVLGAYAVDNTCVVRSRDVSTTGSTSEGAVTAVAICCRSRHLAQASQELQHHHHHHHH

[3] = biological target: T1, proprotein convertase subtilisin/kexin …; test: phage spot ELISA; second of two rows with this extension
[4] = biological target: T2, PCSK9Δhelix; test: as above
[5] = biological target: T2, PCSK9Δhelix; test: phage competition ELISA: synthetic peptide against its phage-displayed counterpart
[6] = biological target: T3, PCSK9 (proprotein convertase subtilisin/kexin type 9), His-tagged, full-length (human, UniProt Q8NBP7 31-692); test: SPR, Method 1 (Biacore T100, His-tagged target captured on NTA chip)
T3 construct: Captured by the His tag (SPR Methods 1 and 2), amine-coupled (Method 3), or His-tagged in TR-FRET; also called His-PCSK9
T3 sequence (Q8NBP7 31-692 limits assumed): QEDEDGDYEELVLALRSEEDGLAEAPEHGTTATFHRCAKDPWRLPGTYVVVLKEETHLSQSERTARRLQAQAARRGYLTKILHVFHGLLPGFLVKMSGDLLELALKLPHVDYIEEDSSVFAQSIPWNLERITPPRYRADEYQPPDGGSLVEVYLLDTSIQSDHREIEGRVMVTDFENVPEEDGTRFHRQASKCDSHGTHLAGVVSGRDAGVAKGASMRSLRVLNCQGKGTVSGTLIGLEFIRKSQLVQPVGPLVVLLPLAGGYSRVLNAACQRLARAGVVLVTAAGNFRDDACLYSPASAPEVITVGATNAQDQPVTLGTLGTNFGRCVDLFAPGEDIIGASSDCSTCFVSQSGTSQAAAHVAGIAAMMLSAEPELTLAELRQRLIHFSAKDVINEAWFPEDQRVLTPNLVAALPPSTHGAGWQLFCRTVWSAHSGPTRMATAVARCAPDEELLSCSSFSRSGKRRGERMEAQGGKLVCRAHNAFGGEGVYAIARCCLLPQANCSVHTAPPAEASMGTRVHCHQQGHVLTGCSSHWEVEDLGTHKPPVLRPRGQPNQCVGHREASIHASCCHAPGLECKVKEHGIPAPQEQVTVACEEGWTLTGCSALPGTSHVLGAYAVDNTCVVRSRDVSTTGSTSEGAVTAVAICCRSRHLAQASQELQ

[7] = biological target: T4, PCSK9Δhelix (human, UniProt Q8NBP7 31-152; Q8NBP7 168-692); test: as above
T4 construct: Made by TEV cleavage of human PCSK9 M1-Q692 with an engineered TEV site; The new N-terminus of the catalytic domain is S-A168; also called His-PCSK9Δhelix; PCSK9 lacking the P' helix
T4 sequence (Q8NBP7 31-152, stated change not applied, chain 1 of 2): as the sequence (prodomain, as listed by the source mutant limits assumed, chain 1 of 2) above
T4 sequence (Q8NBP7 other isoform, or with tags, fused parts or gaps mutant, chain 2 of 2): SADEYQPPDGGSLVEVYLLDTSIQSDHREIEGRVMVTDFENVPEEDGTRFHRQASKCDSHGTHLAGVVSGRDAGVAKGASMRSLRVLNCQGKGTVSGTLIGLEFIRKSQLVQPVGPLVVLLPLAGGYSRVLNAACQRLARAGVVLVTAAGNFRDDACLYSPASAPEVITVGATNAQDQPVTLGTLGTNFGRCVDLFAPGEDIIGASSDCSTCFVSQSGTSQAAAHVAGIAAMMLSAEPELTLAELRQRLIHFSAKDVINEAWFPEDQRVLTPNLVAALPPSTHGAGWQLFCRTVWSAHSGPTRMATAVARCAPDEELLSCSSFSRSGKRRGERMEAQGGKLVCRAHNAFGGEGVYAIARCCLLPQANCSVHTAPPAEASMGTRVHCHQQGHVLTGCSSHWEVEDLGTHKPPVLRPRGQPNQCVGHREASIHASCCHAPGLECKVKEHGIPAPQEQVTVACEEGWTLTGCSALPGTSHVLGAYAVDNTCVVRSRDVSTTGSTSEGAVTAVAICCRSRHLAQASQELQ

[8] = biological target: T3, PCSK9 (proprotein convertase …); test: TR-FRET competition; competitor EGF(A)-Fc binding to His-PCSK9
[9] = biological target: T4, PCSK9Δhelix; test: TR-FRET competition; competitor Ab20 binding to His-PCSK9Δhelix
[10] = biological target: T5, PCSK9Δhelix (human PCSK9 lacking the P' helix, His-tagged) (human, UniProt Q8NBP7 31-152; Q8NBP7 168-692); test: SPR (Biacore), His-tagged PCSK9Δhelix captured on NTA chip
T5 construct: Construct M1-Q692 with an engineered TEV site (Y166 and R167 deleted, ENLYFQS inserted between R165 and A168); also called His-PCSK9Δhelix; C-terminal (His)8-tagged PCSK9Δhelix
T5 sequence (Q8NBP7 31-152, stated change not applied, chain 1 of 2): as the sequence (prodomain, as listed by the source mutant limits assumed, chain 1 of 2) above
T5 sequence (Q8NBP7 other isoform, or with tags, fused parts or gaps mutant, chain 2 of 2): as the sequence (chain, as listed by the source mutant limits assumed, chain 2 of 2) above

[11] = biological target: T5, PCSK9Δhelix (human PCSK9 lacking the P' …); test: TR-FRET competition; His-PCSK9Δhelix with Ab20 as competitor ligand
[12] = biological target: T6, His-tagged, full-length human PCSK9 (proprotein convertase subtilisin/kexin type 9) (human, UniProt A8T644 31-152; Q8NBP7 153-692); test: TR-FRET competition; His-PCSK9 with LDLR-Fc as competitor ligand
T6 construct: also called His-PCSK9; C-terminal (His)8-tagged PCSK9
T6 sequence (A8T644 31-152, chain 1 of 2): as the sequence (prodomain, as listed by the source mutant limits assumed, chain 1 of 2) above
T6 sequence (A8T644 other isoform, or with tags, fused parts or gaps, chain 2 of 2): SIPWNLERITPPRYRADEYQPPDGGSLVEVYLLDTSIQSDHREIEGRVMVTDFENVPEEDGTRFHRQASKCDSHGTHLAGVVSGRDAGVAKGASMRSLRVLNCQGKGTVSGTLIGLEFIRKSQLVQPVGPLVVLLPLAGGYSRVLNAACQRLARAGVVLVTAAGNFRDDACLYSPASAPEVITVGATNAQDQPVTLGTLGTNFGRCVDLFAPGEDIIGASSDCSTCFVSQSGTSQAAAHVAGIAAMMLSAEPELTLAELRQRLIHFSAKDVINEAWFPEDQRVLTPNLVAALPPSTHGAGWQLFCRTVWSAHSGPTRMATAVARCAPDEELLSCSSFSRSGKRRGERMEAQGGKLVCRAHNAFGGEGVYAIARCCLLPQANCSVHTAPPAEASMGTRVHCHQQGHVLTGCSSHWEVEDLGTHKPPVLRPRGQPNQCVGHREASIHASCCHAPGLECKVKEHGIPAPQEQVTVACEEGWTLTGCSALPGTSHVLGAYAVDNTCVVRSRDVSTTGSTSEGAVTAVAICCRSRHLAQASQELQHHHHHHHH

[13] = biological target: T6, His-tagged, full-length human PCSK9 …; test: TR-FRET competition; His-PCSK9 with EGF(A)-Fc as competitor ligand
[14] = biological target: T5, PCSK9Δhelix (human PCSK9 lacking the P' …); test: TR-FRET competition; His-PCSK9Δhelix with Ab20 as competitor ligand; remark: listed apart in the source
[15] = biological target: T3, PCSK9 (proprotein convertase …); test: TR-FRET competition; competitor EGF(A)-Fc binding to His-PCSK9; remark: listed apart in the source
[16] = biological target: T4, PCSK9Δhelix; test: TR-FRET competition; competitor Ab20 binding to His-PCSK9Δhelix; remark: listed apart in the source
[17] = biological target: T2, PCSK9Δhelix; test: phage competition ELISA against phage-displayed Pep2-8 (Φpep2-8)
[18] = biological target: T2, PCSK9Δhelix; test: phage competition ELISA against phage-displayed K9gvpep4 (ΦK9gvpep4)

B1: SEQ ID NO 308 (peptide)
peptide: TAFTSWEEYLDWVGSGVLWNHSRI
[1]
  ELISA: 2.74
  s/n ratio: 24.9
[2]
  ELISA: 2.82
  s/n ratio: 26.4
[3]
  ELISA: 3
  s/n ratio: 29.7
[4]
  ELISA: 2.91
  s/n ratio: 31.3

B2: K9gvpep7 (peptide)
peptide: SGDLMPWNLVRIGLLR
notes: synthetic; Compound 20 = Pep2-8_K9gvpep7
[5]
  IC50: 914 nM

B3: Compound 28 (peptide)
peptide: SGDLMPWNLVRIGLLR
notes: Free N- and C-termini as printed
[6]
  Kd: 46100 nM
[7]
  Kd: 856 nM

B4: Compound 19 (peptide)
peptide: Ac-TVFTSWEEYLDWVGSGCRLPWNLQRIGLPC-NH2
modifications: disulfide 17-30 (inferred)
notes: Two Cys, disulfide-cyclized; also called Pep2-8p4; Pep2-8_K9gvpep4
[8]
  IC50: 9 nM
[9]
  IC50: 2 nM
[6]
  Kd: 2.07 nM
[7]
  Kd: 0.0989 nM

B5: Compound 53: Ac-WNLVRIGLLR-NH2 (peptide)
peptide: Ac-WNLVRIGLLR-NH2
[10]
  Kd: 14000 nM
[11]
  IC50: 52400 nM

B6: Compound 228: Ac-SFAFPGWNLV(homoR)IGLLR-NH2 (peptide)
peptide: Ac-SFAFPGWNLV[hArg]IGLLR-NH2
SMILES: CC[C@H](C)[C@H](NC(=O)[C@H](CCCCNC(=N)N)NC(=O)[C@@H](NC(=O)[C@H](CC(C)C)NC(=O)[C@H](CC(N)=O)NC(=O)[C@H](Cc1c[nH]c2ccccc12)NC(=O)CNC(=O)[C@@H]1CCCN1C(=O)[C@H](Cc1ccccc1)NC(=O)[C@H](C)NC(=O)[C@H](Cc1ccccc1)NC(=O)[C@H](CO)NC(C)=O)C(C)C)C(=O)NCC(=O)N[C@@H](CC(C)C)C(=O)N[C@@H](CC(C)C)C(=O)N[C@@H](CCCNC(=N)N)C(N)=O
[12]
  IC50: 30400 nM
[13]
  IC50: 13200 nM
[14]
  IC50: 1370 nM

B7: Compound 51: Ac-MPWNLVRIGLLR-NH2 (peptide)
peptide: Ac-MPWNLVRIGLLR-NH2
[10]
  Kd: 1400 nM
[11]
  IC50: 6600 nM

B8: Compound 20 (peptide)
peptide: Ac-TVFTSWEEYLDWVGSGDLMPWNLVRIGLLR-NH2
notes: also called Pep2-8p7; Pep2-8_K9gvpep7
[15]
  IC50: 37 nM
[16]
  IC50: 1 nM
[6]
  Kd: 5.56 nM
[7]
  Kd: 0.366 nM

B9: Compound 26 (peptide)
peptide: H-SGCFIPWNLQRIGLLC-NH2
modifications: disulfide 3-16 (inferred)
notes: Two Cys, disulfide-cyclized
[6]
  Kd: 29000 nM
[7]
  Kd: 802 nM

B10: Compound 20 (peptide)
peptide: Ac-TVFTSWEEYLDWVGSGDLMPWNLVRIGLLR-NH2
notes: as for B8
[17]
  IC50: 1.75 nM
[18]
  IC50: 5.99 nM

B11: Compound 229: Ac-MESFPGWNLV(homoR)IGLLR-NH2 (peptide)
peptide: Ac-MESFPGWNLV[hArg]IGLLR-NH2
SMILES: CC[C@H](C)[C@H](NC(=O)[C@H](CCCCNC(=N)N)NC(=O)[C@@H](NC(=O)[C@H](CC(C)C)NC(=O)[C@H](CC(N)=O)NC(=O)[C@H](Cc1c[nH]c2ccccc12)NC(=O)CNC(=O)[C@@H]1CCCN1C(=O)[C@H](Cc1ccccc1)NC(=O)[C@H](CO)NC(=O)[C@H](CCC(=O)O)NC(=O)[C@H](CCSC)NC(C)=O)C(C)C)C(=O)NCC(=O)N[C@@H](CC(C)C)C(=O)N[C@@H](CC(C)C)C(=O)N[C@@H](CCCNC(=N)N)C(N)=O
[12]
  IC50: 25000 nM
[13]
  IC50: 8300 nM
[14]
  IC50: 840 nM

B12: Compound 231: Ac-ESYPGWNLV(homoR)IGLLR-NH2 (peptide)
peptide: Ac-ESYPGWNLV[hArg]IGLLR-NH2
SMILES: CC[C@H](C)[C@H](NC(=O)[C@H](CCCCNC(=N)N)NC(=O)[C@@H](NC(=O)[C@H](CC(C)C)NC(=O)[C@H](CC(N)=O)NC(=O)[C@H](Cc1c[nH]c2ccccc12)NC(=O)CNC(=O)[C@@H]1CCCN1C(=O)[C@H](Cc1ccc(O)cc1)NC(=O)[C@H](CO)NC(=O)[C@H](CCC(=O)O)NC(C)=O)C(C)C)C(=O)NCC(=O)N[C@@H](CC(C)C)C(=O)N[C@@H](CC(C)C)C(=O)N[C@@H](CCCNC(=N)N)C(N)=O
[12]
  IC50: > 50000 nM
[13]
  IC50: 15800 nM
[14]
  IC50: 1490 nM

B13: Compound 227: Ac-ESFPGWNLV(homoR)IGLLR-NH2 (peptide)
peptide: Ac-ESFPGWNLV[hArg]IGLLR-NH2
SMILES: CC[C@H](C)[C@H](NC(=O)[C@H](CCCCNC(=N)N)NC(=O)[C@@H](NC(=O)[C@H](CC(C)C)NC(=O)[C@H](CC(N)=O)NC(=O)[C@H](Cc1c[nH]c2ccccc12)NC(=O)CNC(=O)[C@@H]1CCCN1C(=O)[C@H](Cc1ccccc1)NC(=O)[C@H](CO)NC(=O)[C@H](CCC(=O)O)NC(C)=O)C(C)C)C(=O)NCC(=O)N[C@@H](CC(C)C)C(=O)N[C@@H](CC(C)C)C(=O)N[C@@H](CCCNC(=N)N)C(N)=O
[12]
  IC50: > 50000 nM
[13]
  IC50: 23200 nM
[14]
  IC50: 2510 nM

B14: Compound 230: Ac-DSYPGWNLV(homoR)IGLLR-NH2 (peptide)
peptide: Ac-DSYPGWNLV[hArg]IGLLR-NH2
SMILES: CC[C@H](C)[C@H](NC(=O)[C@H](CCCCNC(=N)N)NC(=O)[C@@H](NC(=O)[C@H](CC(C)C)NC(=O)[C@H](CC(N)=O)NC(=O)[C@H](Cc1c[nH]c2ccccc12)NC(=O)CNC(=O)[C@@H]1CCCN1C(=O)[C@H](Cc1ccc(O)cc1)NC(=O)[C@H](CO)NC(=O)[C@H](CC(=O)O)NC(C)=O)C(C)C)C(=O)NCC(=O)N[C@@H](CC(C)C)C(=O)N[C@@H](CC(C)C)C(=O)N[C@@H](CCCNC(=N)N)C(N)=O
[12]
  IC50: > 50000 nM
[13]
  IC50: 24200 nM
[14]
  IC50: 2420 nM

B15: Compound 50: Ac-LMPWNLVRIGLLR-NH2 (peptide)
peptide: Ac-LMPWNLVRIGLLR-NH2
[10]
  Kd: 470 nM
[11]
  IC50: 3600 nM

B16: Compound 52: Ac-PWNLVRIGLLR-NH2 (peptide)
peptide: Ac-PWNLVRIGLLR-NH2
[10]
  Kd: 2100 nM
[11]
  IC50: 15900 nM

B17: Compound 192: Ac-WNLV(homoR)IGLLR-NH2 (peptide)
peptide: Ac-WNLV[hArg]IGLLR-NH2
[10]
  Kd: 1000 nM
[12]
  IC50: > 50000 nM
[13]
  IC50: > 50000 nM
[11]
  IC50: 5600 nM
[14]
  IC50: 5550 nM

B18: K9gvpep4 (peptide)
peptide: SGCRLPWNLQRIGLPC
modifications: not fully specified (bridges); cysteine pairing not given here
notes: synthetic; Compound 19 = Pep2-8_K9gvpep4, the two N-terminal residues of K9gvpep4 being the SG of the GSG linker
[5]
  IC50: 544 nM
